Reference: patent US20220275097A1 (SHANGHAITECH UNIVERSITY, published 2022)
Where a chain is given by its changes, count along the chain named. One block for each binder: values may come before it.

Legend:
[1] = target: T1, extracellular domain of the human leptin receptor (human, UniProt P48357 22-839); assay: SPR, Biacore T200; His-tagged leptin receptor ECD amine-coupled on a CM5 chip, binder as analyte
T1 construct: extracellular domain; a tag is not mentioned for the ELISA and cross-linking experiments; also called hECD; recombinant leptin receptor extracellular domain
T1 sequence (looked up): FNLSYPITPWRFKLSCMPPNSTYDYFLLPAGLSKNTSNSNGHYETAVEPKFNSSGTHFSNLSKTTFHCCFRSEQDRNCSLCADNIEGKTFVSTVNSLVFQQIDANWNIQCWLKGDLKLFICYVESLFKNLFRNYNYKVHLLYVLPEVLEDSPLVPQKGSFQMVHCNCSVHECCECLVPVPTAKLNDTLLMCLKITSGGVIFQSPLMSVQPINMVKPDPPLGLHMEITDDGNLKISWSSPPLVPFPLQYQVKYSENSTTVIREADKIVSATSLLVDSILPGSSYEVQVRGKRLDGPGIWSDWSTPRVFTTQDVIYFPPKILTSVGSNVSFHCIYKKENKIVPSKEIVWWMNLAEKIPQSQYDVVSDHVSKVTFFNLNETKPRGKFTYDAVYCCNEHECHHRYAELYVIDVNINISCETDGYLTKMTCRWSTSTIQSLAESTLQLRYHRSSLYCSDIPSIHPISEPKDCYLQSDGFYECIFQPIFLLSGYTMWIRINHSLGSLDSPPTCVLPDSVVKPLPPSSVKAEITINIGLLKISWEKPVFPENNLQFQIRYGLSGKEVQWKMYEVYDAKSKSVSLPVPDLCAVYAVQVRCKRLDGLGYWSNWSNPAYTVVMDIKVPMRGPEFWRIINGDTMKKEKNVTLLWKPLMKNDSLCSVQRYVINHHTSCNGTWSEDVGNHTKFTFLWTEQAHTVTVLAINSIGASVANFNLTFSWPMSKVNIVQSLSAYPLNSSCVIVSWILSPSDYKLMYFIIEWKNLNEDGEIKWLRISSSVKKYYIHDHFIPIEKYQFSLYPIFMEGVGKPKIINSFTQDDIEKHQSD
Protocol: The SPR binding assays were performed using the Biacore T200™ (GE Healthcare). […] All manipulations were performed as described in the user guide of the manufacturer. The analysis of the results were processed in BIA evaluation Software™.

[2] = target: T1, extracellular domain of the human …; assay: SPR; leptin receptor ECD immobilized, antibody as analyte
[3] = target: T2, N terminal domain (NTD) of the leptin receptor extracellular domain, F22-Q121 (human, UniProt P48357 22-121); assay: ELISA of S2H6 on purified subdomains of the leptin receptor extracellular domain, OD405; antibody concentration not given
T2 sequence: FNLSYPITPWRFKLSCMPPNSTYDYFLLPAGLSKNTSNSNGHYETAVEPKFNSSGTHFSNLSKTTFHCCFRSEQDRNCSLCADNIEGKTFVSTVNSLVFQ
From the text: (§1) To test ability if the antibody to bind these domains, these subdomain were used in an ELISA-based biding assay.

[4] = target: T3, first cytokine receptor homology domain (CRH1) of the leptin receptor extracellular domain, Q122-V333 (human, UniProt P48357 122-333); assay: as above
T3 construct: Expressed and purified subdomain
T3 sequence: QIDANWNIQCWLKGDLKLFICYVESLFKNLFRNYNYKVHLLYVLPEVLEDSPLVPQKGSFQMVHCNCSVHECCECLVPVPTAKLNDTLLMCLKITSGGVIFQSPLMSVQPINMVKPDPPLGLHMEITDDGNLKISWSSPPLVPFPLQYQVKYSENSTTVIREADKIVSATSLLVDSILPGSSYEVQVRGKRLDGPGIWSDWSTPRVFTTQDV
From the text: as §1

[5] = target: T4, immunoglobulin-like domain (IgD) of the leptin receptor extracellular domain, I334-V427 (human, UniProt P48357 334-427); assay: as above
T4 construct: Expressed and purified subdomain
T4 sequence: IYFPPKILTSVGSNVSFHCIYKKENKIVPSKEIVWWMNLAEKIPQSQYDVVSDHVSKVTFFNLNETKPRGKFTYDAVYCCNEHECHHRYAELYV
From the text: as §1

[6] = target: T5, fibronectin type III domains (FNIII) of the leptin receptor extracellular domain, I636-D839 (human, UniProt P48357 636-839); assay: as above
T5 construct: Expressed and purified subdomain
T5 sequence: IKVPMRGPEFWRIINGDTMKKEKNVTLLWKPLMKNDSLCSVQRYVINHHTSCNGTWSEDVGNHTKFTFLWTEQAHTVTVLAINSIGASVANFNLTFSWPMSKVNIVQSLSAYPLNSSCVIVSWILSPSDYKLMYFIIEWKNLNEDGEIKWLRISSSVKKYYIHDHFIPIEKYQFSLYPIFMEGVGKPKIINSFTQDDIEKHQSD
From the text: as §1

Kd [1]: 7.47 nM | koff [1]: 0.0516 s⁻¹ | kon [1]: 6.91e+06 M⁻¹ s⁻¹
B1: S1scAb06 (antibody, V domains shown)
VH: QVQLVESGGGVVQPGRSLRLSCAASGFTFSSYGMHWVRQAPGKGLEWVAVISYDGSNKYYADSVKGRFTISRDNSKNTLYLQMNSLRAEDTAVYYCAKSLRNSFDYWGQGTLVTVSS
VL: EIVLTQSPGTLSLSPGERATLSCRASQSVSSNYLAWYQQKPGQAPRLLIYGASSRPTGIPDRFSGSGSGTDFTLTISRLEPEDFAVYYCQQYAASPLTFGGGTKLEIK
notes: also called S1scAb6; 51scAb06

Kd [2]: 0.639 nM | koff [2]: 0.000171 s⁻¹ | kon [2]: 268000 M⁻¹ s⁻¹
B2: S2H7 (antibody, V domains shown)
VH: B1 VH with V5L, E6Q, K98T, S99R, L100Y, R101E, S103Y, D105S, Y106T
VL: B1 VL
notes: also called SC2H7

Kd [2]: 0.626 nM | koff [2]: 0.000164 s⁻¹ | kon [2]: 262000 M⁻¹ s⁻¹
B3: S2H5 (antibody, V domains shown)
VH: B1 VH with V5L, E6Q, K98S, S99R, L100Y, R101E, S103Y, D105S, Y106L
VL: B1 VL
notes: also called SC2H5

Kd [2]: 0.579 nM | koff [2]: 0.000271 s⁻¹ | kon [2]: 468000 M⁻¹ s⁻¹
B4: S2H1 (antibody, V domains shown)
VH: B1 VH with V5L, E6Q, K98S, S99L, L100Y, R101E, S103Y, D105S, Y106L
VL: B1 VL
notes: also called SC2H1

Kd [2]: 0.355 nM | koff [2]: 0.000119 s⁻¹ | kon [2]: 336000 M⁻¹ s⁻¹
B5: S2H2 (antibody, V domains shown)
VH: B1 VH with V5L, E6Q, K98T, S99F, L100R, R101E, S103Y, D105E
VL: B1 VL
notes: also called SC2H2; 52H2

Kd [2]: 0.429 nM | koff [2]: 0.0002 s⁻¹ | kon [2]: 466000 M⁻¹ s⁻¹
B6: S2H3 (antibody, V domains shown)
VH: B1 VH with V5L, E6Q, K98G, S99V, L100R, R101E, S103Y, D105T
VL: B1 VL
notes: also called SC2H3

Kd [2]: 0.39 nM | koff [2]: 0.000308 s⁻¹ | kon [2]: 786000 M⁻¹ s⁻¹ | Kd [1]: 0.39 nM | koff [1]: 0.000308 s⁻¹ | kon [1]: 786000 M⁻¹ s⁻¹ | binding result [3]: no binding | binding result [4]: no binding | binding result [5]: no binding | binding result [6]: no binding
B7: S2H6 (antibody, V domains shown)
VH: B1 VH with V5L, E6Q, K98S, S99F, L100Q, R101E, S103Y, D105T
VL: B1 VL
notes: also called SC2H6
